Assay results published in patent US20250154277A1 (CONCEPT TO MEDICINE BIOTECH, published 2025).

T1: human 5T4-His protein (human, UniProt Q13641 32-355)
T1 construct: also called recombinant 5T4 protein (human 5T4-his tag); human 5T4 protein; not shown: His tag
T1 sequence (looked up): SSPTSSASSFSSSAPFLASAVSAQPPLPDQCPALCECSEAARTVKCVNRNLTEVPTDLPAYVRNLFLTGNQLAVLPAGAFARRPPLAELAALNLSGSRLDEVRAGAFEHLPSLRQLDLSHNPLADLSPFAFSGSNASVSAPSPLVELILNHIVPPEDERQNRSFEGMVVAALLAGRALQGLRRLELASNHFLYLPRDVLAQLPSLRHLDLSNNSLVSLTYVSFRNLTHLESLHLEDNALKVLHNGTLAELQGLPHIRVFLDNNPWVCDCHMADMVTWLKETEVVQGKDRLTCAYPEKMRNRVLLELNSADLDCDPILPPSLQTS

T2: cynomolgus 5T4 protein (cynomolgus monkey, UniProt Q4R8Y9 35-355, limits assumed)
T2 construct: Coated protein in ELISA; the screening step names a cyno 5T4-His protein; also called cyno 5T4; recombinant cyno 5T4-His protein
T2 sequence (looked up): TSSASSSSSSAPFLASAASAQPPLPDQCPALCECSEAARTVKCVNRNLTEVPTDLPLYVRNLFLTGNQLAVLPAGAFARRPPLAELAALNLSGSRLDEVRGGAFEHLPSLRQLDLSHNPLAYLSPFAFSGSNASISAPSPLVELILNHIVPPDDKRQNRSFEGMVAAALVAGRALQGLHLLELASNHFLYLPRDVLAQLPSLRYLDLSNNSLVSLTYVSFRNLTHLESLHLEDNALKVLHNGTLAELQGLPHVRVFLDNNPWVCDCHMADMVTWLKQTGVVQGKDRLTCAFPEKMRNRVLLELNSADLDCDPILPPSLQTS

T3: human 5T4 expressed on cells (human, UniProt Q13641 32-420)
T3 construct: whole, on cells; also called CHOK1-hu5T4; CHO-K1-expressing human 5T4
T3 sequence (looked up): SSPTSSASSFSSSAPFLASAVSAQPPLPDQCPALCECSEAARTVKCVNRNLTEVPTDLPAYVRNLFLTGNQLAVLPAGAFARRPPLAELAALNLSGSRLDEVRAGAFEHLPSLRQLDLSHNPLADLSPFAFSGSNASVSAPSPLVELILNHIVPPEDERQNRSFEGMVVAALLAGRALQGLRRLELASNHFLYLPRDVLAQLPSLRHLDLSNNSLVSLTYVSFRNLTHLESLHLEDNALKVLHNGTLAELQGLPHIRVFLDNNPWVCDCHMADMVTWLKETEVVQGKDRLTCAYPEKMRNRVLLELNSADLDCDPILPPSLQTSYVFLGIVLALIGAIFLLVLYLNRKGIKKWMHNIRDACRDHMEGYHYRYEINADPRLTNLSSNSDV

B1: Hu159D5-5 (antibody, V domains shown)
VH: EVQLVESGGGVVQPGRSLRLSCAASGFTFSNFGMHWVRQAPGKGLEWVAYISSGSSTFYYADSVKGRFTISRDNSKNTLYLQMNSLRAEDTAVYYCARSPAYYRYGLDYWGQGTTVTVSS
VL: DIVMTQSPDSLAVSLGERATINCRASQSVSSSTFSYMHWYQQKPGQPPKLLIKSSSNLESGVPDRFSGSGSGTDFTLTISSLQAEDVAVYYCQHSWEIPYTFGGGTKVEIK
notes: humanized
B2: Hu159D5-11 (antibody, V domains shown)
VH: EVQLVESGGGVVQPGRSLRLSCAASGFTFSNFGMHWVRQAPGKGLEWVAYISSGSSTFYYADSVKGRFTISRDNSKNTLYLQMNSLRAEDTAVYFCARSPAYYRYGLDYWGQGTTVTVSS
VL: DIVMTQSPDSLAVSLGERATINCRASQSVSSSTFSYMHWYQQKPGQPPKLLIKSSSNLESGVPDRFSGSGSGTDFTLTISSLQAEDVAVYYCQHSWEIPYTFGGGTKVEIK
notes: humanized
B3: Hu159D5-6 (antibody, V domains shown)
VH: EVQLVESGGGVVQPGRSLRLSCAASGFTFSNFGMHWVRQAPGKGLEWVAYISSGSSTFYYADSVKGRFTISRDNSKNTLYLQMNSLRAEDTAVYYCARSPAYYRYGLDYWGQGTTVTVSS
VL: DIVLTQSPDSLAVSLGERATINCRASQSVSSSTFSYMHWYQQKPGQPPKLLIKSSSNLESGVPDRFSGSGSGTDFTLTISSLQAEDVAVYYCQHSWEIPYTFGGGTKVEIK
notes: humanized
B4: Hu159D5-4 (antibody, V domains shown)
VH: EVQLVESGGGVVQPGRSLRLSCAASGFTFSNFGMHWVRQAPGKGLEWVAYISSGSSTFYYADSVKGRFTISRDNSKNTLYLQMNSLRAEDTAVYYCARSPAYYRYGLDYWGQGTTVTVSS
VL: DIVMTQSPDSLAVSLGERATINCRASQSVSSSTFSYMHWYQQKPGQPPKLLIYSSSNLESGVPDRFSGSGSGTDFTLTISSLQAEDVAVYYCQHSWEIPYTFGGGTKVEIK
notes: humanized
B5: Hu159D5-12 (antibody, V domains shown)
VH: EVQLVESGGGVVQPGRSLRLSCAASGFTFSNFGMHWVRQAPGKGLEWVAYISSGSSTFYYADSVKGRFTISRDNSKNTLYLQMNSLRAEDTAVYFCARSPAYYRYGLDYWGQGTTVTVSS
VL: DIVLTQSPDSLAVSLGERATINCRASQSVSSSTFSYMHWYQQKPGQPPKLLIKSSSNLESGVPDRFSGSGSGTDFTLTISSLQAEDVAVYYCQHSWEIPYTFGGGTKVEIK
notes: humanized
B6: Hu159D5-10 (antibody, V domains shown)
VH: EVQLVESGGGVVQPGRSLRLSCAASGFTFSNFGMHWVRQAPGKGLEWVAYISSGSSTFYYADSVKGRFTISRDNSKNTLYLQMNSLRAEDTAVYFCARSPAYYRYGLDYWGQGTTVTVSS
VL: DIVMTQSPDSLAVSLGERATINCRASQSVSSSTFSYMHWYQQKPGQPPKLLIYSSSNLESGVPDRFSGSGSGTDFTLTISSLQAEDVAVYYCQHSWEIPYTFGGGTKVEIK
notes: humanized
B7: 37G6 chimeric antibody (antibody, V domains shown)
VH: QVQLQQPGAELVKPGASVKMSCKASGYTFTSYWITWVKQRPGQGLERIGDIYPGSGTINYNEKFKSKATLTVDTSSSTAYMQLSSLTSEDSAVYCCARSDGNYYFDYWGQGTTLKVSS
VL: QIVLSQSPAILSASPGEKVTMTCRASSSVNYMHWYQQKPGSSPKPWIYATSNLASGVPVRFSGSGSGTSYSLTISRVEAEDAATYYCQQWSSNPPTFGGGTKLEIK
B8: trispecific antibody with anti-5T4 portion of Hu393E9-45-P2 (protein, part only; not given: other two arms, Fc, linkers, format, not shown: another chain or arm of the molecule; a dimerising Fc or GST; small tags and cut ends)
VH: EVQLVESGGGLVQPGGSLRLSCAASGFTFTDYYMSWVRQAPGKGLEWVGFIRNKGNGYTTEYSASVKGRFTISRDNSKSSLYLQMNSLKTEDTAVYYCARYRGNPHYAMDYWGQGTLVTVSS
VL: EIVLTQSPGTLSLSPGERATLSCRASESVEFYGTSFLQWYQQKPGQAPRLLIYGASNVESGIPDRFSGSGSGTDFTLTISRLEPEDIAVYFCQQSRKVPSTFGGGTKVEIK
B9: trispecific antibody with anti-5T4 portion of Hu393E9-62-P2 (protein, part only; not given: other two arms, Fc, linkers, format, not shown: another chain or arm of the molecule; a dimerising Fc or GST; small tags and cut ends)
VH: EVQLVESGGGLVQPGGSLRLSCAASGFTFTDYYMSWVRQAPGKGLEWVGFIRNKGNGYTTEYSASVKGRFTISRDNAKSSLYLQMNSLRAEDTAVYYCARYRGNPHYAMDYWGQGTLVTVSS
VL: EIVLTQSPATLSVSPGERATLSCRASESVEFYGTSFLQWYQQKPGQAPRLLIYGASNVESGIPARFSGSGSGTEFTLTISSLQSEDIAVYFCQQSRKVPSTFGGGTKVEIK

Key:
human 5T4-His protein [1] = molecular target: T1, human 5T4-His protein; assay: ELISA, coated 5T4-His
Experimental: To evaluate the binding activity of 159D5 humanized antibodies to human 5T4, the 159D5 chimeric antibody along with 159D5 humanized mAbs were subjected to ELISA test.
Briefly, microtiter plates were coated with human 5T4-His protein at 1 μg/ml in PBS, 100 μl/well at 4° C. overnight, then blocked with 150 μl/well of 10% BSA. Serial dilutions of antibodies were added to each well and incubated for 1 hour at 37° C. The plates were washed with PBS/Tween and then incubated with Goat Anti-Human IgG-HRP for 30 mins at 37° C. After washing, the plates were developed with TMB substrate and analyzed by spectrophotometer at OD 450 nm. As shown in FIG. 14 and Table 12, most of the humanized antibodies bound to human 5T4 with high activity.

human 5T4-His protein [2] = molecular target: T1, human 5T4-His protein; assay: SPR Biacore, Protein A capture, 50 nM 5T4-His
Experimental: The binding of the 159D5 humanized antibodies to recombinant 5T4 protein (human 5T4-his tag) was tested with Biacore using a capture method. The mAbs were captured using Protein A chip. 50 nM of human 5T4-his tag protein was injected over captured antibody for 3 mins at a flow rate of 30 μl/min. The antigen was allowed to dissociate for 600 s. All the experiments were carried out on a Biacore T200. Data analysis was carried out using the Biacore T200 evaluation software.

human 5T4-His protein [3] = molecular target: T1, human 5T4-His protein; assay: SPR Biacore, Protein A capture
human 5T4-His protein [4] = molecular target: T1, human 5T4-His protein; assay: ELISA, coated antigen
Experimental: (§1) ELISA testing was carried out to evaluate the binding of chimeric antibodies to human and cynomolgus, respectively. The antibody portion of naptumomab (NeoTX) that targets 5T4 (abbreviated as naptumomab in the present disclosure), was generated and used as a benchmark.
(§2) Briefly, microtiter plates were coated with human and cynomolgus 5T4 proteins at […] in PBS, 100 μl/well at 4° C. overnight, then blocked with 150 μl/well of 1% BSA. Serial dilutions of chimeric antibodies were added to each well and incubated for 1 hour at RT. The plates were washed with PBS/Tween and then incubate with mouse-anti-human IgG Fc antibody conjugated with Horse Radish Peroxidase (HRP) for 30 mins at RT. After washing, the plates were developed with TMB substrate and analyzed by spectrophotometer at OD 450 nm. All the 5T4 chimeric mAbs bound to human and cynomolgus 5T4 (FIG. 1-2 and Table 3).

cynomolgus 5T4 protein = molecular target: T2, cynomolgus 5T4 protein; assay: ELISA, coated antigen
Experimental: as §1, §2

[5] = molecular target: T3, human 5T4 expressed on cells; assay: flow cytometry, CHOK1-hu5T4 cells

Row | EC50 (human 5T4-His protein [1]) [nM] | Kd (human 5T4-His protein [2]) [nM] | koff (human 5T4-His protein [2]) [s⁻¹] | kon (human 5T4-His protein [2]) [M⁻¹ s⁻¹] | also measured | Binder
1 | 0.099 | 10.1 | 0.000561 | 55600 |  | B1
2 | 0.12 | 1.06 | 0.000273 | 257000 |  | B2
3 | 0.1 | 0.71 | 0.000179 | 252000 |  | B3
4 | 0.094 | 7.07 | 0.000426 | 60200 |  | B4
5 | 0.12 | 1.21 | 0.000267 | 222000 |  | B5
6 | 0.094 | 9.31 | 0.000488 | 52400 |  | B6
7 |  |  |  |  | Kd (human 5T4-His protein [3]): 0.59 nM; koff (human 5T4-His protein [3]): 0.000486 s⁻¹; kon (human 5T4-His protein [3]): 823000 M⁻¹ s⁻¹; EC50 (human 5T4-His protein [4]): 0.13 nM; EC50 (cynomolgus 5T4 protein): 0.28 nM | B7
8 |  |  |  |  | EC50 (read off the curve) [5]: 2 nM | B8
9 |  |  |  |  | EC50 (read off the curve) [5]: 2 nM | B9
